Laboratory results from patent US8518892B2, “Methods to treat symptoms of pathophysiology related to body mass” (Board of Supervisors of Louisiana State University and …, priority 2005, dated 2013).

Tested on: diet induced obese (DIO) C57BL/6J mice
Assay: Enho 1 ip for 3 days in diet induced obese C57BL/6J mice (Examples 19-21)
Format: in vivo, mouse
Procedure: (§1) The effect of Enho-1 upon weight loss was tested over the course of 3 days using diet induced obese (DIO) C57BL/6J mice (Jackson Laboratories, Bar Harbor, Me.). The mice were fed Research Diets 12492 (60% kJ/fat) for 12 weeks, resulting in obesity and moderate hyperglycemia in the animals. The mice were approximately 20-22 weeks of age and 30-50 g in weight at the start of the experiment. Fasting blood glucose was determined to be approximately 170-220 mg/dL. Six control mice received vehicle only while six test mice each received doses of either 90 nmol/kg/d, 900 nmol/kg/d or 9000 nmol/kg/d. The injections were given as 3 ip injections at 0600, 1400 and 2000 h on days 1 and 2; over the 3 day period, the mice received a total of 7 injections. All animals were euthanized 5 hours after the last injection given the morning of the third day. Food was removed after the final injection.
as §1, with “insulin and glucose” for “weight loss”
The HOMA-IR for each treatment was calculated using the following formula: ((glucose mg/dL÷18)×(insulin ng/ml×25.05))÷22.5
as §1, with “liver weight, liver lipid content and liver TG” for “weight loss”

[1] = 90 nmol/kg/d ip, listed as Enho-1
[2] = 900 nmol/kg/d ip, listed as Enho-1
[3] = 9000 nmol/kg/d ip, listed as Enho-1

B1: Enho 1: human Enho 1, a 76 amino acid peptide having the sequence SEQ ID NO: 14 (peptide, listed as Homo sapiens)
chain: MGAAISQGALIAIVCNGLVGFLLLLLWVILCWACHSRSADVDSLSESSPNSSPGPCPEKAPPPQKPSHEGSYLLQP
90 nmol/kg/d ip
  Blood glucose: 204 mg/dL
  Delta body weight: 2.9%
  HOMA-IR: 50
  HOMA-IR decrease as compared to the control group: 15%
  Insulin: 3.8 ng/mL
  Liver TG: 57 mg/g
  Liver TG total: 86 mg/g
  Liver lipid: 126 mg/g
  Liver lipid total: 188 mg/g
  Liver weight: 1.5 grams
  Liver weight % body weight: 3.6%
  Weight (pre-treatment): 42.9 g
  Weight (termination): 41.7 g
[1]
  Blood glucose: 204 ± 7 mg/dL
  HOMA-IR: 50 ± 5
  HOMA-IR decrease as compared to the control group: (↓ 15%)
  Insulin: 3.8 ± 0.4 ng/mL
  Liver TG: 57 ± 8 mg/g
  Liver TG total: 86 ± 14 mg/g
  Liver lipid: 126 ± 8 mg/g
  Liver lipid total: 188 ± 13 mg/g
  Liver weight: 1.5 ± 0.0 grams
  Liver weight % body weight: 3.6 ± 0.1%
  Weight (pre-treatment): 42.9 ± 1.2 g
  Weight (termination): 41.7 ± 0.9 g
900 nmol/kg/d ip
  Delta body weight: 3.5%
  HOMA-IR: 42
  Insulin: 4.2 ng/mL
  Liver TG: 48 mg/g
  Liver TG total: 66 mg/g
  Liver lipid: 137 mg/g
  Liver lipid total: 226 mg/g
  Liver weight: 1.5 grams
  Liver weight % body weight: 3.5%
  Weight (pre-treatment): 42.8 g
  Weight (termination): 41.3 g
  blood glucose levels decrease: approximately 15%
  insulin levels reduction: about 14%
900 nmol/kg/d ip, P < 0.05 vs 90
  Blood glucose: 166 mg/dL
900 nmol/kg/d ip, P < 0.05 vs 90, listed as Enho-1
  Blood glucose: 166 ± 13 mg/dL
[2]
  HOMA-IR: 42 ± 3
  Insulin: 4.2 ± 0.5 ng/mL
  Liver TG: 48 ± 12 mg/g
  Liver TG total: 66 ± 14 mg/g
  Liver lipid: 137 ± 34 mg/g
  Liver lipid total: 226 ± 77 mg/g
  Liver weight: 1.5 ± 0.2 grams
  Liver weight % body weight: 3.5 ± 0.2%
  Weight (pre-treatment): 42.8 ± 2.9 g
  Weight (termination): 41.3 ± 2.7 g
900 nmol/kg/d ip, p<0.02
  HOMA-IR decrease as compared to the control group: 29%
900 nmol/kg/d ip, p<0.02, listed as Enho-1
  HOMA-IR decrease as compared to the control group: (↓ 29%)
9000 nmol/kg/d ip
  Blood glucose: 198 mg/dL
  Delta body weight: 4.1%
  HOMA-IR: 52
  HOMA-IR decrease as compared to the control group: 12%
  Insulin: 4.2 ng/mL
  Liver TG: 47 mg/g
  Liver TG total: 63 mg/g
  Liver lipid: 139 mg/g
  Liver lipid total: 230 mg/g
  Liver weight: 1.4 grams
  Liver weight % body weight: 3.4%
  Weight (pre-treatment): 42.7 g
  Weight (termination): 40.9 g
  liver TG reduction as compared to the control group: 18-19%
[3]
  Blood glucose: 198 ± 9 mg/dL
  HOMA-IR: 52 ± 4
  HOMA-IR decrease as compared to the control group: (↓ 12%)
  Insulin: 4.2 ± 0.3 ng/mL
  Liver TG: 47 ± 9 mg/g
  Liver TG total: 63 ± 10 mg/g
  Liver lipid: 139 ± 42 mg/g
  Liver lipid total: 230 ± 96 mg/g
  Liver weight: 1.4 ± 0.2 grams
  Liver weight % body weight: 3.4 ± 0.3%
  Weight (pre-treatment): 42.7 ± 1.6 g
  Weight (termination): 40.9 ± 1.6 g
9000 nmol/kg/d ip, p<0.05, 1-tailed t-test
  serum TG reduction as compared to the control group: 20%
